Patent publication US20040110711A1

Biological target: mouse full-length TrkB (TrkB.FL) (mouse)
Assay: cell-based or functional assay

Q: “BDNF (brain derived neurotrophic factor), supplied by Regeneron Pharmaceuticals (from UniProt P23560 129-247) (ligand)” was tested. Which TrkB phosphorylation in Ts16 neurons against euploid neurons did it give?
A: The TrkB phosphorylation in Ts16 neurons against euploid neurons was 33 % less.

Q: And the neuron survival 36 hours after B27 withdrawal?
A: Its neuron survival 36 hours after B27 withdrawal is 65%.
